Assay results published in US20240317853A1 (UNIVERSITY OF TOKYO, published 2024).

Target: T1, CADM1FcΔ10 (Δ10 Fc variant formed by fusing human Fc with a CADM1 extracellular domain) (human)
T1 construct: The whole entry is the fusion (CADM1 extracellular domain, AAA linker, human IgG1 hinge-Fc); Dimerized via Fc; also called Fc10; dimerized FcΔ10
Assay: SPR (Biacore 8K), antibody amine-coupled on CM5, CADM1 as analyte, multi-cycle kinetics
Procedure: The antibody was diluted with a phosphate buffered saline (PBS) at a concentration of 1 mg/ml, and was then immobilized as a ligand on a sensor chip CM5 by an amine coupling method.

T1 sequence (chain, as listed by the source mutant limits assumed): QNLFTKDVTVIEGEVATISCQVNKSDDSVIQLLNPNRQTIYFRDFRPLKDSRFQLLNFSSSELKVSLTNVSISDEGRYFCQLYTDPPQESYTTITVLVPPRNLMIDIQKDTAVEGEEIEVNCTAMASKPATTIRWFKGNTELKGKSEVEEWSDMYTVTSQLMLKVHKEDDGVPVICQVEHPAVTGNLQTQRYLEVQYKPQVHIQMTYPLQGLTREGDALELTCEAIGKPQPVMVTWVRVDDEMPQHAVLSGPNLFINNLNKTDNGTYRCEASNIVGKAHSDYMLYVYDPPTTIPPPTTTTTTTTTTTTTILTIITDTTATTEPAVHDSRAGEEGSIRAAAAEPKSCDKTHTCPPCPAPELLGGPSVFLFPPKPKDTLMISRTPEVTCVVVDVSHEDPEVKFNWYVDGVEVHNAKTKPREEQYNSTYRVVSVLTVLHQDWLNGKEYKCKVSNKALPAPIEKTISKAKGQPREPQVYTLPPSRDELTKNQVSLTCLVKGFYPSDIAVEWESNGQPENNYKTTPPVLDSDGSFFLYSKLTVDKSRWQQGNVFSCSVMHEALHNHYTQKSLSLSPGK

Kd: 0.64 nM
B1: YTH-W-2C2 chimeric antibody (antibody, V domains shown)
VH: QVQLQQSGAELAKPGSSVKISCKASGYTFSNYDISWIKQTTGQGLDYIGYIHTGSGGTYYNEKFKGKATLTVDKSSSTAFMQLSSLTPEDTAVYYCARTPYVYYGSGYFDFWGPGTMVTVSS
VL: DIVMTQSPSSLAVSAGETVTINCKSSQSLLYSGNQKNYLAWYQQKPGQSPKLLIYWASTRQSGVPDRFIGSGSGTDFTLTISSVQAEDLAIYYCQQYYDTPDTFGAGTKLELKR
